Measurements as given in patent US20250275560A1, “PROCESS OF MAKING GINGEROL COMPOUNDS AND THEIR USE AS FLAVOR MODIFIERS” (Firmenich SA, priority 2021, published 2025).

B1: SEQ ID NO: 1: KRED polypeptide isolated from Bacillus sp, 248 amino acids, expressed recombinantly in Escherichia coli (protein, listed as Bacillus sp.)
chain: MSGRVAVITGAGSGIGRETCLTFARKGEKVVVADINEEKGLETTELVKAEGGEAVFVNTDVSKFEEVEALVDQAVETYGSIDIMFNNAGIGKMGHVLSLNIEDYLHVIDVNQHGVAYGIIAAGRKMRDLDIKGVIINSASVFGYLANFGTFPYQASKGAVRMMTQNAALELSQYGIRVVGIAPGSVDTSIIQAYKDAGMTQKMKEQQMRKELIRPEAIANAVYLLTLEEADVINGSVVMLDDGYASFK
B2: SEQ ID NO: 3: KRED polypeptide isolated from Weizmannia coagulans, 248 amino acids, expressed recombinantly in Escherichia coli (protein)
chain: MSGRVAVITGAGSGIGWETSLTFARKGDSVVVADIDEEKGLETVELIKQEGGDAVFAKTDVSKFEEVESLVNQAVEIYGTIDVMFNNAGIGTLGHILSKKIEDYLRVIDVNQHGVAYGIIAAGRKMRELDVKGVIINTASVFGYLANFGTFPYQAAKGAVRMMTQNAALELAQYGIRVVGIAPGCVDTPIIQAYKDAGMTQKMTEQQMRKKLIRPEAIANAVYLLTLEEADAINGSVVMLDDGYASFK
modifications: Weizmannia coagulans
notes: KRED polypeptide isolated from Weizmannia coagulans, 248 amino acids, expressed recombinantly in Escherichia coli

Assays:
[1] = Determination of the enzyme activities for ethyl-2-oxo-4-phenylbutyrate with enzyme lysate (NADH absorption decrease at 340 nm); format: biochemical; conditions: enzyme lysate of recombinant RB791 cells, per wet cell mass; room temperature, pH 7.0, 0.3 mM NADH, 1 mM ethyl-2-oxo-4-phenylbutyrate; mean of at least three measurements
Description: Enzyme lysates (10% [w/v] and 20% [w/v] wet cell mass) were used to determine the enzyme activities. Enzyme lysates were prepared in TEA buffer (100 mM triethanolamine pH 7.0, 2 mM MgCl2). 0.1 g or 0.2 g wet cell mass was completely resuspended in 1 ml TEA buffer. The cells were disrupted in 2 ml reaction vessels by adding a 0.5 ml corresponding volume of glass beads at 24 Hz for 10 minutes in a vibrating mill (Retsch, MM200). The cell lysate was then sedimented in a tabletop centrifuge at 7500×g for 60 seconds. The cell-free supernatant, the enzyme lysate, was used immediately to determine the activity.
The activity was measured at room temperature in a reaction volume of 1 ml in a semi-micro cuvette (layer thickness 1 cm). The reaction mixture was composed as follows: 100 mM triethanolamine pH 7.0, 2 mM MgCl2, 0.3 mM NADH and 1 mM ethyl-2-oxo-4-phenylbutyrate (CAS No. 64920 29 2)
The reaction was started by adding 15 μL or 25 μL of enzyme lysate diluted in TEA buffer. The individual dilution was chosen for each enzyme lysate in such a way that a linear decrease in absorption at 340 nm could be recorded over a period of 30 seconds (UV-Vis spectrophotometer, Shimadzu). […] Each measurement was carried out at least three times and the mean values were determined. […] (SEQ ID NO: 1) or Weizmannia coagulans (SEQ ID NO: 3), respectively, enzyme activities of 1825 U/g and 71 U/g were determined.

[2] = Characterization of oxidoreductases with regard to reduction of [6]-gingerol to the (3R,5S)-alcohol (HPLC); format: biochemical; conditions: recombinant E. coli enzyme suspension, NADH, 2-propanol, 25° C., 24 hours; for Ratio: 3S,5S/3R,5S (%) - 3R,5S share / Ratio: 3S,5S/3R,5S (%) - 3S,5S share: 2 mg [6]-gingerol; for Conversion (%): conversion of [6]-gingerol
Description: The oxidoreductases with the polypeptide sequences SEQ ID NO: 1 and SEQ ID NO: 3 were examined by the following method to determine the conversion rate and diasterioselectivity by reducing [6]-gingerol to the corresponding (3R, 5S)-alcohol:
Recombinant Escherichia coli cells which carry the genes of the oxidoreductases SEQ ID NO: 1 or SEQ ID NO: 3 were cultivated as described in Example 2. To produce an enzyme suspension, 1 g wet cells were completely resuspended with TEA buffer (100 mM triethanolamine pH 7.0, 2 mM MgCl2) in a total volume of 5 mL and then mixed until homogeneous by adding 5 mL glycerol solution (80% [v/v] in TEA buffer). In the reaction setup, 2 mg [6]-gingerol per […] of this enzyme suspension were added to 160 μL KPP buffer (100 mM potassium phosphate buffer, pH 7.5, 1 mM MgCl2), together with 0.0035 g NADH and 20 μL 2-propanol. After incubating the samples at 25° C. and 1200 rpm for 24 hours, the reaction solutions were extracted with 1 ml each of […] and centrifuged. 250 μL of the extract were removed and dried. Then 1 ml acetonitrile was added and analyzed by means of HPLC. A Luna PFP (2) column (150×3 mm) from Phenomenex (Germany) was used for detecting the conversion of [6]-gingerol and the diastereomers formed.

| Molecule | enzyme activity [1] [U/g] | Ratio: 3S,5S/3R,5S (%) - 3R,5S share [2] [%] | Ratio: 3S,5S/3R,5S (%) - 3S,5S share [2] [%] | Conversion (%) [2] [%] |
| --- | --- | --- | --- | --- |
| B1 | 1825 | 95.5 | 4.5 | >71 |
| B2 | 71 | 98.6 | 1.4 | >84 |
